Substitutions are numbered along the chain they refer to. Names and notes keep the numbering of the source.

In series [1] the target is rEC1-3 K43A (20–345, C345A, K43A) (human) (UniProt Q6ZTQ4). As to the kind of experiment: co-IP; refolded bacterial CDHR3 fragment (100 pmol) incubated with C15 virus (10^7 PFUe, 1 h, 25°C) and α-His mAb in 20 mM Tris, 137 mM NaCl, 2 mM CaCl2, 1% Triton x-100, protein-G sepharose; Western with α-His and α-C15; complexes also treated with 500 mM NaCl (Fig 5d).
In series [2] the target is rEC1-3 (CDHR3 residues 20–345, C345A) (human) (UniProt Q6ZTQ4). The description is as above.
For series [3], the target named is rEC1-2 (CDHR3 residues 20–237) (human) (UniProt Q6ZTQ4). Described as above.
Series [4] concerns the target rEC1+3(Δ2) (CDHR3 residues 20–345, Δ129–231) (human) (UniProt Q6ZTQ4). The series is described as above.
In series [5] the target is rEC1-3 N186A (20–345, C345A, N186A) (human) (UniProt Q6ZTQ4). The series is described as above.
Series [6] has as its target rEC1 (CDHR3 residues 20–130) (human) (UniProt Q6ZTQ4). The description is as above.
Series [7] has as its target FLAG-tag-CDHR3 Y529 R166A (human) (UniProt Q6ZTQ4). The series is described as follows: co-IP; clarified lysate of transfected or stably transduced HeLa cells (2 mM CaCl2) incubated with sucrose purified C15 virus (10^7 PFUe) and α-CDHR3 antibody (cytoplasmic domain) overnight at 4°C, protein-G sepharose; Western with α-CDHR3 and α-C15.
Series [8] addresses FLAG-tag-CDHR3 Y529 K43A (human) (UniProt Q6ZTQ4). Described as above.
The target in series [9] is FLAG-tag-CDHR3 Y529 N186A (human) (UniProt Q6ZTQ4). The series is described as above.
Series [10] addresses FLAG-tag-CDHR3 Y529 W76A (human) (UniProt Q6ZTQ4). The series is described as above.
Series [11] has as its target FLAG-tag-CDHR3 Y529 N186Q (human) (UniProt Q6ZTQ4). Described as above.
Series [12] concerns the target pHL-FLAG-CDHR3-His EC1-3 (1–345) (human) (UniProt Q6ZTQ4). The series is described as follows: co-IP; HeLa-expressed CDHR3 fragments recovered from lysate with α-His mAb, denatured and refolded as the bacterial proteins, reacted with C15 virus; IP and detection with α-His mAb.
Series [13] concerns the molecule itself. As to the kind of experiment: SEC; HiPrep 16/60 Sephacryl S200, refolded protein 0.5–1.5 mg, 1 mL/min, 20 mM Tris (pH 8.0), 137 mM NaCl, 2 mM CaCl2. In general terms: Size exclusion chromatography separates by hydrodynamic size, large species first.

In the case of rhinovirus C15 virion (complex), the binding % relative to WT rEC1-3 in series [1] was 22%; in series [5], 85 % of WT. Further, the binding % relative to the positive control (100) of the panel in [2] was 61%; in series [3], 87%; in series [4], 68%; in series [6], 100%. The binding % relative to WT CDHR3 (C15 signal normalized to CDHR3 signal) stood at 16% in series [7], 46% in series [8], 11% in series [9] and 19% in series [11]. In series [10], this molecule registered a % more virus pull-down than WT (% more than WT) of 50 to 80. In series [12], this molecule registered a binding % after refolding relative to the same protein not refolded of 213%.

B1: rEC1-2 (CDHR3 residues 20–237) (domain or fragment)
chain: LHLILLPATGNVAENSPPGTSVHKFSVKLSASLSPVIPGFPQIVNSNPLTEAFRVNWLSGTYFEVVTTGMEQLDFETGPNIFDLQIYVKDEVGVTDLQVLTVQVTDVNEPPQFQGNLAEGLHLYIVERANPGFIYQVEAFDPEDTSRNIPLSYFLISPPKSFRMSANGTLFSTTELDFEAGHRSFHLIVEVRDSGGLKASTELQVNIVNLNDEVPRFT
notes: CDHR3, human, residues 20-237 (EC1 and EC2); numbering from GenBank AIC58018; also called rE1-2; rEC1-2 WT; not shown: His6, C-terminal, kept
With B1, the binding result in series [13] is “binds”.

B2: rEC1-2 W76A (CDHR3 residues 20–237, W76A) (domain or fragment, human, UniProt Q6ZTQ4 20-237, looked up)
chain: B1 chain with W57A
notes: CDHR3, human, residues 20-237; numbering from GenBank AIC58018; not shown: His6, C-terminal, kept
Consider B2, for which the binding result in series [13] is “binds”.

B3: rEC1-3 (CDHR3 residues 20–345, C345A) (domain or fragment)
chain: LHLILLPATGNVAENSPPGTSVHKFSVKLSASLSPVIPGFPQIVNSNPLTEAFRVNWLSGTYFEVVTTGMEQLDFETGPNIFDLQIYVKDEVGVTDLQVLTVQVTDVNEPPQFQGNLAEGLHLYIVERANPGFIYQVEAFDPEDTSRNIPLSYFLISPPKSFRMSANGTLFSTTELDFEAGHRSFHLIVEVRDSGGLKASTELQVNIVNLNDEVPRFTSPTRVYTVLEELSPGTIVANITAEDPDDEGFPSHLLYSITTVSKYFMINQLTGTIQVAQRIDRDAGELRQNPTISLEVLVKDRPYGGQENRIQITFIVEDVNDNPATA
notes: numbering from GenBank AIC58018; also called soluble CDHR3 rEC1-3; not shown: His6, C-terminal, kept
On to B3, for which, in [13], the binding result is reported as “binds”.
